Measurements reported in US20220025023A1 (AC IMMUNE, published 2022).
Substitutions are numbered along the chain they refer to. Where no end group is shown, it is not given here.

T1: TDP-215 peptide (human)
T1 construct: same ELISA method as for the biotinylated 15-mers
T1 peptide: GDVMDVFI

T2: TDP-213 peptide (human)
T2 construct: 8-mer of human TDP-43; same ELISA method as for the biotinylated 15-mers
T2 peptide: QYGDVMDV

T3: TDP-217 peptide (human)
T3 construct: 8-mer of human TDP-43; same ELISA method as for the biotinylated 15-mers
T3 peptide: VMDVFIPK

T4: TDP-210 peptide (human)
T4 construct: 8-mer of human TDP-43; same ELISA method as for the biotinylated 15-mers
T4 peptide: FFSQYGDV

T5: TDP-218 peptide (human)
T5 construct: 8-mer of human TDP-43; same ELISA method as for the biotinylated 15-mers
T5 peptide: MDVFIPKP

T6: TDP-220 peptide (human)
T6 construct: 8-mer of human TDP-43; same ELISA method as for the biotinylated 15-mers
T6 peptide: VFIPKPFR

T7: TDP-224 peptide (human)
T7 construct: 8-mer of human TDP-43; same ELISA method as for the biotinylated 15-mers
T7 peptide: KPFRAFAF

T8: TDP-212 peptide (human)
T8 construct: 8-mer of human TDP-43; same ELISA method as for the biotinylated 15-mers
T8 peptide: SQYGDVMD

T9: TDP-223 peptide (human)
T9 construct: 8-mer of human TDP-43; same ELISA method as for the biotinylated 15-mers
T9 peptide: PKPFRAFA

T10: TDP-219 peptide (human)
T10 construct: 8-mer of human TDP-43; same ELISA method as for the biotinylated 15-mers
T10 peptide: DVFIPKPF

T11: TDP-221 peptide (human)
T11 construct: 8-mer of human TDP-43; same ELISA method as for the biotinylated 15-mers
T11 peptide: FIPKPFRA

T12: TDP-216 peptide (human)
T12 construct: 8-mer of human TDP-43; same ELISA method as for the biotinylated 15-mers
T12 peptide: DVMDVFIP

T13: TDP-214 peptide (human)
T13 construct: 8-mer of human TDP-43; same ELISA method as for the biotinylated 15-mers
T13 peptide: YGDVMDVF

T14: TDP-222 peptide (human)
T14 construct: 8-mer of human TDP-43; same ELISA method as for the biotinylated 15-mers
T14 peptide: IPKPFRAF

T15: TDP-211 peptide (human)
T15 construct: 8-mer of human TDP-43; same ELISA method as for the biotinylated 15-mers
T15 peptide: FSQYGDVM

T16: TDP-1 peptide (human)
T16 construct: Immunogen peptide; conjugated to Luminex beads in the assay; also called TDP-43 aa 212-272
T16 peptide: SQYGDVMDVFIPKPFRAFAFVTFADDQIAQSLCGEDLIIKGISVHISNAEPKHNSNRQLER

T17: TP-27 (also: biotinylated, site not given here)
T17 construct: also called TP-27 peptide
T17 peptide: ADDQIAQSLCGEDLI

T18: TP-30 (also: biotinylated, site not given here)
T18 construct: also called TP-30 peptide
T18 peptide: PKHNSNRQLERSGRF

T19: TP-29 (also: biotinylated, site not given here)
T19 construct: also called TP-29 peptide
T19 peptide: ISVHISNAEPKHNSN

T20: TP-26 (also: biotinylated, site not given here)
T20 construct: also called TP-26 peptide
T20 peptide: FRAFAFVTFADDQIA

T21: TP-31 (also: biotinylated, site not given here)
T21 construct: also called TP-31 peptide
T21 peptide: ERSGRFGGNPGGFGN

T22: TP-28 (also: biotinylated, site not given here)
T22 construct: also called TP-28 peptide
T22 peptide: CGEDLIIKGISVHIS

T23: TDP-3 peptide (human)
T23 construct: Irrelevant control peptide; conjugated to Luminex beads in the assay; also called TDP-43 aa 310-370; irrelevant target
T23 peptide: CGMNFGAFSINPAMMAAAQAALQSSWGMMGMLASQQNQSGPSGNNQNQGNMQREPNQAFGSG

T24: TP-24 peptide (human, also: biotinylated, site not given here)
T24 construct: 15-mer of human TDP-43 from the library spanning aa 199-285; captured on streptavidin plates
T24 peptide: REFFSQYGDVMDVFI

T25: TP-25 peptide (human, also: biotinylated, site not given here)
T25 construct: 15-mer of human TDP-43 from the library spanning aa 199-285; captured on streptavidin plates
T25 peptide: VMDVFIPKPFRAFAF

B1: ACI-7062-415C4-Ab1 (antibody, IgG1, V domains shown)
VH: QVTLKESGPGILQPSQTLSLTCSFSGFSLSTYGIGVGWIRQPSGKGLEWLAHIWWNDNKYYKTALKSRLTISKDTSNNQVFLKIASVDTADSATYYCARVYGNLYYFGYWGQGTTLTVSS
VL: DVLMTQTPLSLPVSLGDQASISCRSSQSIVHSTGNTYLEWYLQKPGQSPKLLIYKVSNRFSGVPDRFSGSGSGTDFTLKISRVEAEDLGVYYCFQGSRVPTFGAGTKLELKR
notes: also called 415C4C6; clone 14
B2: ACI-7062-412E12-Ab1 (antibody, IgG1, V domains shown)
VH: DVQLVESGGGLVQPGGSRRLSCAASGFTFSRFGMHWVRQAPEKGLEWVAYIRSGSDIIYYADSVKGRFTISRDNPENTLFLQMTSLRSEDTAMYYCARSGTTVPFDYWGQGTSLTVSS
VL: DIVMTQSPSSLAMSVGQKVTMSCKSSQSLLNSGDQKNYLAWYQQKPGQSPELLLYFASTRASGVPDRFIGSGSGTDFSLTISSVQAEDLADYFCQQHYSIPLTFGAGTKLELKR
notes: also called 412E12A2; clone 10
B3: ACI-7062-414A5-Ab1 (antibody, IgG2a, V domains shown)
VH: B2 VH with R31S, S63T, Q82E, S85R
VL: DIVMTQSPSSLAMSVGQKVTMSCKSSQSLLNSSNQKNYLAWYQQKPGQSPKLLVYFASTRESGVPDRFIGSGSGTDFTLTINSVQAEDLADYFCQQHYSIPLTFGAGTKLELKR
notes: also called 414A5D2; clone 12

Biological target: T1, TDP-215 peptide
Assay: indirect ELISA, 8-mer peptide library, OD 405 nm
Protocol: (§1) Serum-free supernatants were harvested from stable hybridomas. The supernatants containing antibodies of interest were then screened by an indirect ELISA assay to determine epitopes. Epitopes were mapped using a library of TDP-43 15-mer peptides. Briefly, 96-well streptavidin-coated 96-well ELISA plates were incubated with 5 μg/mL of biotinylated 15-mer peptides spanning the amino acids (aa) 199-285 of human TDP-43 with 9 aa offset and 6 aa overlap. Plates were washed thoroughly with 0.05% Tween-20/PBS and then blocked with 1% bovine serum albumin (BSA) in 0.05% Tween-20/PBS for 1 hour at 37° C. The antibody contained in the hybridoma supernatant was then added at the indicated dilutions, and incubated for 2 hours at 37° C. after which the plates were washed as described previously. An AP-conjugated anti-mouse IgG secondary antibody (Jackson ImmunoResearch Laboratories, United Kingdom) was added at 1/1000 dilution in 0.05% Tween-20/PBS for 1 hour at 37° C. After the final wash, plates were incubated with pNPP (Sigma-Aldrich, Switzerland) an AP substrate solution, and read at 405 nm using an ELISA plate reader (Tecan).
(§2) Furthermore, antibodies were tested using an indirect ELISA on a peptide library of 8-mer peptides with 7 aa overlap covering the sequence of human TDP-43 from aa 210 to aa 231, using the same ELISA method as describe previously in this section.

Binder | binding result
B1 | binds
B2 | binds
B3 | binds

Biological target: T2, TDP-213 peptide
Assay: indirect ELISA, 8-mer peptide library
Protocol: as §1, §2

Binder | binding result
B1 | no binding
B2 | no binding
B3 | no binding

Biological target: T3, TDP-217 peptide
Assay: indirect ELISA, 8-mer peptide library
Protocol: as §1, §2

Binder | binding result
B1 | no binding
B2 | no binding
B3 | no binding

Biological target: T4, TDP-210 peptide
Assay: indirect ELISA, 8-mer peptide library
Protocol: as §1, §2

Binder | binding result
B1 | no binding
B2 | no binding
B3 | no binding

Biological target: T5, TDP-218 peptide
Assay: indirect ELISA, 8-mer peptide library
Protocol: as §1, §2

Binder | binding result
B1 | no binding
B2 | no binding
B3 | no binding

Biological target: T6, TDP-220 peptide
Assay: indirect ELISA, 8-mer peptide library
Protocol: as §1, §2

Binder | binding result
B1 | no binding
B2 | no binding
B3 | no binding

Biological target: T7, TDP-224 peptide
Assay: indirect ELISA, 8-mer peptide library
Protocol: as §1, §2

Binder | binding result
B1 | no binding
B2 | no binding
B3 | no binding

Biological target: T8, TDP-212 peptide
Assay: indirect ELISA, 8-mer peptide library
Protocol: as §1, §2

Binder | binding result
B1 | no binding
B2 | no binding
B3 | no binding

Biological target: T9, TDP-223 peptide
Assay: indirect ELISA, 8-mer peptide library
Protocol: as §1, §2

Binder | binding result
B1 | no binding
B2 | no binding
B3 | no binding

Biological target: T10, TDP-219 peptide
Assay: indirect ELISA, 8-mer peptide library
Protocol: as §1, §2

Binder | binding result
B1 | no binding
B2 | no binding
B3 | no binding

Biological target: T11, TDP-221 peptide
Assay: indirect ELISA, 8-mer peptide library
Protocol: as §1, §2

Binder | binding result
B1 | no binding
B2 | no binding
B3 | no binding

Biological target: T12, TDP-216 peptide
Assay: indirect ELISA, 8-mer peptide library
Protocol: as §1, §2

Binder | binding result
B1 | no binding
B2 | no binding
B3 | no binding

Biological target: T13, TDP-214 peptide
Assay: indirect ELISA, 8-mer peptide library
Protocol: as §1, §2

Binder | binding result
B1 | no binding
B2 | no binding
B3 | no binding

Biological target: T14, TDP-222 peptide
Assay: indirect ELISA, 8-mer peptide library
Protocol: as §1, §2

Binder | binding result
B1 | no binding
B2 | no binding
B3 | no binding

Biological target: T15, TDP-211 peptide
Assay: indirect ELISA, 8-mer peptide library
Protocol: as §1, §2

Binder | binding result
B1 | no binding
B2 | no binding
B3 | no binding

What follows are binders tested against T26, BSA (bovine, UniProt P02769) (assay: indirect ELISA, control coat in the 15-mer series, hybridoma supernatant).
T26 construct: not specified; also called bovine serum albumin
T26 sequence (P02769 25-607 limits assumed): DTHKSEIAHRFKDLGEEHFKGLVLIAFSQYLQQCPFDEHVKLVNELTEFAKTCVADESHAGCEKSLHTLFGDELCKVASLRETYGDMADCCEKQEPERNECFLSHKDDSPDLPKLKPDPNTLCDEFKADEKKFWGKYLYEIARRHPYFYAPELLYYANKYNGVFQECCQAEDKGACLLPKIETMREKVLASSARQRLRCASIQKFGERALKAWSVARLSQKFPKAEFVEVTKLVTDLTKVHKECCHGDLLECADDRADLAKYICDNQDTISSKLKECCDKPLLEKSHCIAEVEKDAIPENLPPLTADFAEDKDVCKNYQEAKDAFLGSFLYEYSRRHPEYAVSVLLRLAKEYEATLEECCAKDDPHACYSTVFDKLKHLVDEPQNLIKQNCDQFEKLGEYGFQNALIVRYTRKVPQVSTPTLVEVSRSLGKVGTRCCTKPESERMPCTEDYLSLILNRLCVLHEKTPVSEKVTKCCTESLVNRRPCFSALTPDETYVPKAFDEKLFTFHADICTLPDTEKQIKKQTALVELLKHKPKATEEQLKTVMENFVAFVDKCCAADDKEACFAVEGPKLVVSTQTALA

Binder | binding result
B1 | no binding
B2 | no binding
B3 | no binding

Biological target: T16, TDP-1 peptide
Assay: Luminex bead assay, antibody serial dilution, TDP-1 peptide beads

Binder | EC50
B1 | < 0.01 nM
B2 | < 0.01 nM
B3 | < 0.01 nM

Biological target: T17, TP-27
Assay: indirect ELISA, biotinylated 15-mer on streptavidin plate, hybridoma supernatant
Protocol: as §1

Binder | binding result
B1 | no binding
B2 | no binding
B3 | no binding

Biological target: T18, TP-30
Assay: as above
Protocol: as §1

Binder | binding result
B1 | no binding
B2 | no binding
B3 | no binding

Biological target: T19, TP-29
Assay: as above
Protocol: as §1

Binder | binding result
B1 | no binding
B2 | no binding
B3 | no binding

Biological target: T20, TP-26
Assay: as above
Protocol: as §1

Binder | binding result
B1 | no binding
B2 | no binding
B3 | no binding

Biological target: T21, TP-31
Assay: as above
Protocol: as §1

Binder | binding result
B1 | no binding
B2 | no binding
B3 | no binding

Biological target: T22, TP-28
Assay: as above
Protocol: as §1

Binder | binding result
B1 | no binding
B2 | no binding
B3 | no binding

Biological target: T23, TDP-3 peptide
Assay: Luminex bead assay, TDP-3 peptide beads (irrelevant target)

Binder | binding result
B1 | no binding
B2 | no binding
B3 | no binding

Biological target: T24, TP-24 peptide
Assay: indirect ELISA, biotinylated 15-mer peptide on streptavidin plate, hybridoma supernatant
Protocol: as §1

Binder | OD
B1 | 3.8 O.D. (405 nm)
B2 | 3.2 O.D. (405 nm)
B3 | 3.9 O.D. (405 nm)

Biological target: T25, TP-25 peptide
Assay: as above
Protocol: as §1

Binder | OD
B1 | 1.2 O.D. (405 nm)
B2 | 1.2 O.D. (405 nm)
B3 | 1.2 O.D. (405 nm)
